In PMC8548916:

Biological target: Cnm1 (contact nucleus mitochondria 1) tagged with GFP on its C terminus (S. cerevisiae)
Assay: co-IP; GFP-Trap beads precipitate Cnm1-GFP from cleared yeast lysate (1% digitonin, 150 mM NaCl, 50 mM Tris-HCl pH 8.0, 5% glycerol, 1 mM MgCl2), 1 h at 4°C; Western blot with antibodies against GFP and mCherry; enrichment by densitometry

fold enrichment in the immunoprecipitate relative to Tom20: 2 fold
Substance: Tom70 tagged with mCherry on its C terminus (from UniProt P07213 1-617) (natural protein)
